How the values were obtained:
[1] = molecular target: Gq proteins
[2] = molecular target: Gq proteins; remark: listed apart in the source
[3] = molecular target: Gq proteins; remark: listed apart in the source

| light-induced increase in Ca^2+ signal (Calbryte 630 AM) in HEK 293T cells [1] | Ca^2+ signal increase in HEK 293T cells [2] | Ca^2+ transients (Calbryte 630 AM) in primary mouse astrocytes [3] | Substance |
| --- | --- | --- | --- |
| 3 ΔF/F |  |  | Turtle Opn5 (receptor) |
|  | 0.5 ΔF/F |  | opto-a1AR (receptor) |
|  | 1 ΔF/F |  | human OPN4 (from UniProt Q9UHM6) (receptor) |
| 3 ΔF/F |  | 8 ΔF/F | Chicken Opn5 (receptor) |
